Source: article PMC8519427

Biological target: human α-SNAP with an Avitag and a C-terminal 6xHis tag (human) (UniProt P54920)
Test: BLI; Octet RED96, 25°C; 0.25 μM biotinylated α-SNAP loaded on streptavidin biosensor tips; analyte: purified Orai1 or Stim1 fragments at varying concentrations; PBS with 2 mg/ml BSA and 0.02% Tween-20; association 5 min, dissociation 10 min; double referencing; global fit to the 1:1 or 2:1 binding model

Chain of human α-SNAP with an Avitag and a C-terminal 6xHis tag (human) (P54920 whole entry, the tested form may be a part): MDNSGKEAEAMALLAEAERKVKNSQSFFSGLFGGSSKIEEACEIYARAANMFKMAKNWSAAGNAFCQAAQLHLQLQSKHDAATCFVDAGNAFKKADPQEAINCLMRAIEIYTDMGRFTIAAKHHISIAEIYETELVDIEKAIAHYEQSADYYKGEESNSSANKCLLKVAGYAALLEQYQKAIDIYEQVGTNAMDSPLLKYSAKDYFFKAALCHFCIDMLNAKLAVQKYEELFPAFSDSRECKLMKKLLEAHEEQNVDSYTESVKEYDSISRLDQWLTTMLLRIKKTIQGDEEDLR

Substance	KD1 (2:1 binding model, site 1) [nM]	KD2 (2:1 binding model, site 2) [µM]	Kd [nM]	koff [s⁻¹]	koff1 (2:1 binding model, site 1) [s⁻¹]	koff2 (2:1 binding model, site 2) [s⁻¹]	kon [M⁻¹ s⁻¹]	kon1 (2:1 binding model, site 1) [M⁻¹ s⁻¹]	kon2 (2:1 binding model, site 2) [M⁻¹ s⁻¹]
commercially synthesized Orai1 245–292 peptide (from UniProt Q96D31 245-292)	198	0.715	369	0.000506	5.62e-05	0.0279	1370	284	39000
purified untagged Orai1 1–103 (from UniProt Q96D31 1-103) (domain or fragment)			763	0.000117			154		
purified untagged Orai1 245–292 (from UniProt Q96D31 245-292) (domain or fragment)	314	202	548	0.000595	0.000213	0.0306	1080	678	152
